From patent publication US20110243941A1

Biological target: wild type CH1-CH3 Fc fusion protein displayed on yeast (pYD-CH1) (human)
Assay: FACS titration 1.4 to 0.0006 µM on yeast-displayed Fc, MFI, nonlinear regression

- Kd: 6 nM
Substance: soluble FcγRIIIA tetrameric complex (biotinylated FcγRIIIA-AVITAG on streptavidin-phycoerythrin) (from UniProt P08637 17-203) (receptor)
